Measured values as given in article PMC10764318.

Key:
Experiment in all cases: BLI
[1] = target: WRAIR-5011 (rhesus macaque)
[2] = target: WRAIR-5004 (rhesus macaque)
[3] = target: WRAIR-5020 (rhesus macaque)
[4] = target: WRAIR-5001 (rhesus macaque | human)
[5] = target: WRAIR-5021 (rhesus macaque)
[6] = target: WRAIR-5005 (rhesus macaque)
Sequence of WRAIR-5005 (rhesus macaque) (VH, as listed by the source, chain 1 of 2): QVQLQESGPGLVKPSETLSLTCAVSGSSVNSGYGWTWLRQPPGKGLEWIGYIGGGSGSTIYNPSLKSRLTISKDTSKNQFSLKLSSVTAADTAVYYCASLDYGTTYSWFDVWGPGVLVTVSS
Sequence of WRAIR-5005 (rhesus macaque) (VL, as listed by the source, chain 2 of 2): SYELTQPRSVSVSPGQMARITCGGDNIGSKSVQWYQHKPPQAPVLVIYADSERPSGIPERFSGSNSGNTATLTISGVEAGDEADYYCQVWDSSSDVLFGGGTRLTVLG

Sequence of WRAIR-5011 (rhesus macaque) (VH, as listed by the source, chain 1 of 2): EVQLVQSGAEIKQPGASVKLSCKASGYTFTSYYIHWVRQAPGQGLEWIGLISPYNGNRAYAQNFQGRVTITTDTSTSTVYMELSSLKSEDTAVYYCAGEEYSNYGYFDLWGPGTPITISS
Sequence of WRAIR-5011 (rhesus macaque) (VL, as listed by the source, chain 2 of 2): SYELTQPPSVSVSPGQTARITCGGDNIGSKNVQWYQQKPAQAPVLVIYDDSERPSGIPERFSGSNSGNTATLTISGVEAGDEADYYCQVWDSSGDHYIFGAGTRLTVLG
Sequence of WRAIR-5021 (rhesus macaque) (VH, as listed by the source, chain 1 of 2): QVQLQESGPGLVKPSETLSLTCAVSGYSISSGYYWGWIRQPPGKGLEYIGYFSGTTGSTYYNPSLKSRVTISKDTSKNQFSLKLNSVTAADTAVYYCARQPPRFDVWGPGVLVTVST
Sequence of WRAIR-5021 (rhesus macaque) (VL, as listed by the source, chain 2 of 2): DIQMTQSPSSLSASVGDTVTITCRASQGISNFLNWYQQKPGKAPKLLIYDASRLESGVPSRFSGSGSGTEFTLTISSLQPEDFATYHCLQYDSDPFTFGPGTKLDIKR
Sequence of WRAIR-5020 (rhesus macaque) (VH, as listed by the source, chain 1 of 2): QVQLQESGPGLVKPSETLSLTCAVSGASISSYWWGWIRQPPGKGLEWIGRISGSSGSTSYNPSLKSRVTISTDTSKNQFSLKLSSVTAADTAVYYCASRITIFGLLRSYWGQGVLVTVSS
Sequence of WRAIR-5020 (rhesus macaque) (VL, as listed by the source, chain 2 of 2): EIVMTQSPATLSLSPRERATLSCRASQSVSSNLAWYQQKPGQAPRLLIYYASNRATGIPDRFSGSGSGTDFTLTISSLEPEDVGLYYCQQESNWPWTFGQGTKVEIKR
Sequence of WRAIR-5004 (rhesus macaque) (VH, as listed by the source, chain 1 of 2): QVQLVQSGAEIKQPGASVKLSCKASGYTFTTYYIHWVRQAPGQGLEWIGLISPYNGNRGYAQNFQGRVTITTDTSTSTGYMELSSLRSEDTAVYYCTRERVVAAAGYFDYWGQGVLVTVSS
Sequence of WRAIR-5004 (rhesus macaque) (VL, as listed by the source, chain 2 of 2): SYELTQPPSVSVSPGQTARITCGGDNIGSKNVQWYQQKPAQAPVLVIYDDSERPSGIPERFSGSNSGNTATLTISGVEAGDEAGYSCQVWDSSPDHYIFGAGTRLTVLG

| Substance | Kd [1] [nM] | Kd [2] [nM] | Kd [3] [nM] | Kd [4] [nM] | Kd [5] [nM] | Kd [6] [nM] |
| --- | --- | --- | --- | --- | --- | --- |
| SARS-CoV-2 Omicron BA.1 RBD (from UniProt P0DTC2 331-527) (domain or fragment) | 0.38 | 1.93 | 24.1 | 0.23 | 8.05 | 14.9 |
| SARS-CoV-2 Omicron BA.4/5 RBD (from UniProt P0DTC2 331-527) (domain or fragment) | 0.42 | 3.1 | 34.5 | 0.92 | 2.63 | 41.1 |
